Like-named read-outs stand apart in the source and are kept apart here.
Columns and labels:
RNA Polymerase II (rat) [1] = target: RNA Polymerase II (rat)
RNA Polymerase II (rat) [2] = target: RNA Polymerase II (rat); remark: listed apart in the source

runoff transcription from the AdML promoter by RNA Polymerase II (RNA Polymerase II (rat) [1]) [%] | runoff transcription from the AdML promoter by RNA Polymerase II (RNA Polymerase II (rat) [2]) [%] | Substance
> 50 | – | Elongin A deletion mutant 1-730
– | 50 | Elongin A deletion mutant 1-680
